Assay [1] deals with Human IGF1R ectodomain (UniProt P08069). Briefly: SPR; Biacore 3000, multi-cycle kinetics; IGF1R ectodomains amine coupled on CM5 chips (about 1500-2000 RU); VHHs in flow at 20 µL/min, 300 s association, 300 s dissociation; 0.25-10 nM (IGF1R5), 1-25 nM (IGF1R5-H2); HBS-EP pH 7.4, 25 °C; 1:1 binding model.
For assay [2], the target named is mouse IGF1R ectodomain (mouse) (UniProt Q60751). The assay is described as above.
Assay [3] deals with T1, rhesus IGF1R ectodomain (aa31-932) (Macaca mulatta, UniProt I2CWY3).
T1 construct: insulin-like growth factor-1 receptor, rhesus, ectodomain, aa31-932; source: NRC Montreal
Kind of assay: SPR; Biacore T200, single-cycle kinetics (rhesus IGF1R); IGF1R ectodomain amine coupled on CM5 chip; VHHs in flow at 40 µL/min, 180 s association, 600 s dissociation; 0.25-10 nM (IGF1R5), 1-25 nM (IGF1R5-H2); HBS-EP pH 7.4, 25 °C; 1:1 binding model. Particulars: both partners purified. On the technique in general: SPR reads the build-up and loss of mass on a sensor chip optically.

Assay [4] deals with T2, rat IGF1R ectodomain (aa31-936) (Rattus norvegicus, UniProt P24062).
T2 construct: insulin-like growth factor-1 receptor, rat, ectodomain, aa31-936; source: NRC Montreal
Briefly: SPR; Biacore 3000, multi-cycle kinetics; IGF1R ectodomains amine coupled on CM5 chips (about 1500-2000 RU); VHHs in flow at 20 µL/min, 300 s association, 300 s dissociation; 0.25-10 nM (IGF1R5), 1-25 nM (IGF1R5-H2); HBS-EP pH 7.4, 25 °C; 1:1 binding model. Particulars: both partners purified.

Assay [5] has as its target Human IGF1R ectodomain (UniProt P08069). Briefly: SPR; acidic pH: HBS-EP MES buffer pH 5.6, 37 °C; IGF1R ectodomains amine coupled on CM5 chips; VHHs in flow, 0.25-10 nM (IGF1R5), 1-50 nM (IGF1R5-H2); 1:1 binding model.
Assay [6] addresses mouse IGF1R ectodomain (mouse) (UniProt Q60751). Described as above.

The results in this text go back to PMC9316817, “Brain Delivery of IGF1R5, a Single-Domain Antibody Targeting Insulin-like Growth Factor-1 Receptor” (Pharmaceutics, 2022).

T1 sequence (I2CWY3 entry or part of it): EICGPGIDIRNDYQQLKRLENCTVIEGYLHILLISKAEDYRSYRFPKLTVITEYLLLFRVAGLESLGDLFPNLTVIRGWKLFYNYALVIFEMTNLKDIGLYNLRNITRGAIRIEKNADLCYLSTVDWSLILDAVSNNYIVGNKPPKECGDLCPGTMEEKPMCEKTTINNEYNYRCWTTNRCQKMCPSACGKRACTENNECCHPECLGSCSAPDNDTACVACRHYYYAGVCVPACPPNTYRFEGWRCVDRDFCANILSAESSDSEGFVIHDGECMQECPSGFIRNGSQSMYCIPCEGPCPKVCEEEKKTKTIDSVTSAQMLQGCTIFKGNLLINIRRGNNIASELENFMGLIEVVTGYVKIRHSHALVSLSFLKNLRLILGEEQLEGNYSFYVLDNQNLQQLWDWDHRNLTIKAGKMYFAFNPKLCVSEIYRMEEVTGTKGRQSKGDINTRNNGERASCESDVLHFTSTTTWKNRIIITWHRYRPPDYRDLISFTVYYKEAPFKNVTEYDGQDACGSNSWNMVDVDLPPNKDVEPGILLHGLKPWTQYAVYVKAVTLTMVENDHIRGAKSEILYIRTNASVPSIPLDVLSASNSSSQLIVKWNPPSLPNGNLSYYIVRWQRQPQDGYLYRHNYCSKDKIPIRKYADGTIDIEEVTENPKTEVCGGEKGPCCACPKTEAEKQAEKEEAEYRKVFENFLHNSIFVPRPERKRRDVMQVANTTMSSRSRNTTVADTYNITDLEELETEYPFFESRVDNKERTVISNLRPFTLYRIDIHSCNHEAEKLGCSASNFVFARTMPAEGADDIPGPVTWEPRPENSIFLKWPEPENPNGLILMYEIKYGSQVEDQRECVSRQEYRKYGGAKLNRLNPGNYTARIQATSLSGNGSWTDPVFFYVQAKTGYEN
Sequence of mouse IGF1R ectodomain (mouse) (Q60751 742-936): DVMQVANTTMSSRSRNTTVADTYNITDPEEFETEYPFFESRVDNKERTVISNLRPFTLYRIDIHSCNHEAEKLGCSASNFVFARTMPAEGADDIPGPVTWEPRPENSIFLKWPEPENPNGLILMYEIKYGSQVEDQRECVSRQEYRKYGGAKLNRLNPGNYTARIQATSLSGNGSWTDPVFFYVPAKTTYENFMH
Sequence of Human IGF1R ectodomain (P08069 741-935): as the sequence (Q60751 742-936) above, with V19A, F31L, P185Q, T189G, M194I counted along it
T2 sequence (P24062 31-936): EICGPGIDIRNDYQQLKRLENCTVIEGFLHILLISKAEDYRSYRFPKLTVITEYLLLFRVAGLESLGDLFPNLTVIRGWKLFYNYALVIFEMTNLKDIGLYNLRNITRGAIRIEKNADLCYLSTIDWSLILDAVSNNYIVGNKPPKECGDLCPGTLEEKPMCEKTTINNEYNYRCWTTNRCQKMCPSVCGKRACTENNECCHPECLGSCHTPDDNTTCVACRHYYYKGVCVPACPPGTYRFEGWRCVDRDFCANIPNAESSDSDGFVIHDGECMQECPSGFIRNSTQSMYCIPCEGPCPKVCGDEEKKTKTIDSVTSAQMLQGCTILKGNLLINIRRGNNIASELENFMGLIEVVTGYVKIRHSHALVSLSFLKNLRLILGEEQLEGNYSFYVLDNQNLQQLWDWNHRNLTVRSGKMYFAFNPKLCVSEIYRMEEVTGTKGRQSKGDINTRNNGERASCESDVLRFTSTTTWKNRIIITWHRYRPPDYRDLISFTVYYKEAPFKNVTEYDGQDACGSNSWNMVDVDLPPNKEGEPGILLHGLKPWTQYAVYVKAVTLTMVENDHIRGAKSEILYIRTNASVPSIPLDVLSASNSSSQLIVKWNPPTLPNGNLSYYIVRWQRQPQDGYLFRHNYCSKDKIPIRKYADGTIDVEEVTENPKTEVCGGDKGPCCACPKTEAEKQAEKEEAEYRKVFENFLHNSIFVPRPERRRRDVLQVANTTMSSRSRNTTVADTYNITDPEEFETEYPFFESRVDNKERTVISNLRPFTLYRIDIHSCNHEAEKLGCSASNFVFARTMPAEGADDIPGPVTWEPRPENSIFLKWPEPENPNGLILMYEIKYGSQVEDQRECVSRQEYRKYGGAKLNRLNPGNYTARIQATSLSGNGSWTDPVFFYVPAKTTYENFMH

B1: IGF1R5 single-domain antibody (camelid VHH against insulin-like growth factor-1 receptor) (VHH)
VHH: QVKLEESGGGLVQAGGSLRLSCAASGRTIDNYAMAWSRQAPGKDREFVATIDWGDGGARYANSVKGRFTISRDNAKGTMYLQMNNLEPEDTAVYSCAMARQSRVNLDVARYDYWGQGTQVTVSS
notes: Monomeric VHH fraction isolated by SEC was used for SPR; Isolated from a phage display library of a llama immunized with the extracellular domain of human IGF1R (933 amino acids); also called wild-type IGF1R5; IGF1R5 sdAb; source: TG1 Escherichia coli, purified (HiTrap Chelating HP; preparative SEC on Superdex S75 Increase just before SPR)
A word on the Kd: it is the equilibrium constant for the complex coming apart. Lower therefore signals higher affinity. The term koff denotes the first-order rate constant of dissociation. By kon is commonly meant the rate constant with which the complex forms. A low value points to slower complex formation. Turning to B1, the Kd in assay [1] was found to be 0.64 nM; in assay [2], 1.1 nM; in assay [3] it was 0.4 nM; in assay [4], 1.1 nM; in assay [5], 4 nM; in assay [6], 4.8 nM. Besides, the off-rate (koff) turned out to be 0.00034 s⁻¹ in assay [1]; 0.0003 s⁻¹ in assay [2]; 0.00059 s⁻¹ in assay [3]; 0.00038 s⁻¹ in assay [4]; 0.0028 s⁻¹ in assay [5]; 0.0028 s⁻¹ in assay [6]. Further, the association rate constant (kon) is 530000 M⁻¹ s⁻¹ in assay [1]; 260000 M⁻¹ s⁻¹ in assay [2]; 1.5e+06 M⁻¹ s⁻¹ in assay [3]; 340000 M⁻¹ s⁻¹ in assay [4]; 690000 M⁻¹ s⁻¹ in assay [5]; 590000 M⁻¹ s⁻¹ in assay [6].

B2: IGF1R5-H2, humanized variant of the IGF1R5 single-domain antibody (VHH)
VHH: QVQLVESGGGLVQPGGSLRLSCAASGRTIDNYAMAWVRQAPGKGLEWVATIDWGDGGTRYANSVKGRFTISRDNSKNTMYLQMNSLRAEDTAVYYCAMARQSRVNLDVARYDYWGQGTLVTVSS
notes: CDRs of m1 grafted on a human VH3 germline framework, 4 back-mutations in the Vernier zone, no camelizing back-mutations in FR2, CDR2 point mutation A57T; Kabat numbering; Changes are stated against the camelid IGF1R5; also called humanized IGF1R5-H2; source: produced and purified as described for the llama sdAbs (TG1 Escherichia coli, HiTrap Chelating HP; preparative SEC just before SPR)
As to B2, the Kd in assay [1] worked out at 7.6 nM; in assay [2], 9.1 nM; in assay [3], 17 nM; in assay [4] it was 11 nM; in assay [5] it was 160 nM; in assay [6], 150 nM. The dissociation rate constant (koff) in assay [1] is 0.0029 s⁻¹; in assay [2], 0.0021 s⁻¹; in assay [3], 0.0038 s⁻¹; in assay [4] it was 0.0026 s⁻¹; in assay [5] it was 0.034 s⁻¹; in assay [6], 0.043 s⁻¹. Besides, the kon was 380000 M⁻¹ s⁻¹ in assay [1]; 230000 M⁻¹ s⁻¹ in assay [2]; 230000 M⁻¹ s⁻¹ in assay [3]; 230000 M⁻¹ s⁻¹ in assay [4]; 210000 M⁻¹ s⁻¹ in assay [5]; 290000 M⁻¹ s⁻¹ in assay [6].
